According to publication PMC10484726, “Archaeal Hel308 suppresses recombination through a catalytic switch that controls DNA annealing”:
Numbering of substitutions follows the chain as printed.

Experiments:
Details in all cases: protein: recombinant; tags: N-terminal His6; label: Cy5 (end label); fork
Mth-Hel308 Y586A = molecular target: T1, Mth-Hel308 Y586A (Methanothermobacter thermautotrophicus, UniProt O26901 1-690, Y586A); assay: EMSA; 5 mM EDTA; 25 nM DNA; similar to wild type; EMSA: 20 mM Tris-HCl pH 7.5, 100 ug/ml BSA, 7% glycerol, 25 mM DTT, 5 mM EDTA, 25 nM Cy5-DNA; 5% TBE gel; no added salt stated; 37 C 10 min stated for duplex DNA reactions
T1 sequence: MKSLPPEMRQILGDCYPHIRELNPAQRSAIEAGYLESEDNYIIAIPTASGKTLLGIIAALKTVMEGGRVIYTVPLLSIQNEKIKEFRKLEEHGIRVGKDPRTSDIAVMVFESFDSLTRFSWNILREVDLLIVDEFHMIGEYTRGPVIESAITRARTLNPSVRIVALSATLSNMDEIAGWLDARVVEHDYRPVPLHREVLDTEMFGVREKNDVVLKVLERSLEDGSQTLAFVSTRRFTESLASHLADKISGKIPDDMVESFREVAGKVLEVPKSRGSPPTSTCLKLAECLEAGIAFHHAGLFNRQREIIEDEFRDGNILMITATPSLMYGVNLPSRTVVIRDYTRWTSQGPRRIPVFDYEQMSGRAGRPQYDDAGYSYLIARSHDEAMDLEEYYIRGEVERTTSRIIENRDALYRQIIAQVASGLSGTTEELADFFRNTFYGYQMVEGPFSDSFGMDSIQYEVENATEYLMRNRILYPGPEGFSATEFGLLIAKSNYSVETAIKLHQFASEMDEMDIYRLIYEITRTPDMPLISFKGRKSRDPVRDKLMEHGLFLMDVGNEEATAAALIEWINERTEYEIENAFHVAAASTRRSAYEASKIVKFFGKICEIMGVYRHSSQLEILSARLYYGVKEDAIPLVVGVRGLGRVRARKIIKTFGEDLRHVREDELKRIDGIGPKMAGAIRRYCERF

Mth-Hel308 R591A = molecular target: T2, Mth-Hel308 R591A (Methanothermobacter thermautotrophicus, UniProt O26901 1-690, R591A); assay: EMSA; 5 mM EDTA; 25 nM DNA; EMSA: 20 mM Tris-HCl pH 7.5, 100 ug/ml BSA, 7% glycerol, 25 mM DTT, 5 mM EDTA, 25 nM Cy5-DNA; 5% TBE gel; no added salt stated; 37 C 10 min stated for duplex DNA reactions
T2 sequence: T1 sequence with A586Y, R591A

Mth-Hel308 F295A = molecular target: T3, Mth-Hel308 F295A (Methanothermobacter thermautotrophicus, UniProt O26901 1-690, F295A); assay: as above
T3 sequence: T1 sequence with F295A, A586Y

B1: forked DNA substrate (dsDNA)
DNA 1: GTCGGATCCTCTAGACAGCTCCATGATCACTGGCACTGGTAGAATTCGGC
DNA 2: CAACGTCATAGACGATTACATTGCTACATGGAGCTGTCTAGAGGATCCGA
Question: Does B1 bind (Mth-Hel308 Y586A)?
Answer: Result: binds

Question: Does B1 bind (Mth-Hel308 R591A)?
Answer: Result: binds

Question: What about the Kd (Mth-Hel308 F295A) of the same binder?
Answer: The Kd was 19.3 nM.
